# Results as given in US8124087B2, “Methods of controlling bone loss by inhibiting DKK1” (Board of Trustees of the University of Arkansas, priority 2002, dated 2012).
# Key:
# [1] = tested on: multiple myeloma plasma cells; test: Gene expression profiling of plasma cells before and after 48 hour in vivo drug treatment; set-up: species or system human; settings: 48 hour in vivo treatment of patients
# Excerpt: Following Ficoll-Hypaque gradient centrifugation, plasma cells obtained from the bone marrow were isolated from the mononuclear cell fraction by immunomagnetic bead selection using a monoclonal mouse anti-human CD138 antibody (Miltenyi-Biotec, Auburn, Calif.). More than 90 percent of the cells used for gene expression profiling were plasma cells, as shown by two-color flow cytometry using CD138^+/CD45^− and CD38^+/ CD45^− markers, the presence of cytoplasmic immunoglobulin light chains by immunocytochemistry, and morphology by Wright-Giemsa staining. Total RNA was isolated with RNeasy Mini Kit (Qiagen, Valencia, Calif.). Preparation of labeled cRNA and hybridization to U95Av2 microarrays containing approximately 10,000 genes (Affymetrix, Santa Clara, Calif.) was performed as previously described (Zhan et al., 2002; Zhan et al., 2003). RNA amplification was not required.
# To see if multiple myeloma plasma cells also upregulate the genes in response to drugs used to treat this disease, gene expression profiling of multiple myeloma plasma cells was performed before and after 48 hour in vivo treatment with thalidomide (FIG. 33), ImiD (FIG. 34), PS-341 (FIG. 32), or dexamethasone (FIG. 35). […] In support of this notion, […] and FRZB were expressed at low to undetectable levels in 30 HMCL and several cases of extramedullary disease (FIG. 15).
# [2] = tested on: C2C12 cells; test: Osteoblast differentiation assay (alkaline phosphatase), 5 days; format: cell-based, mouse; settings: 50 ng/ml BMP-2 + 50 ng/ml recombinant human DKK1, 5 days
# Description: C2C12 mesenchymal precursor cells (American Type Tissue Culture, Reston, Va.) were cultured in DMEM (Invitrogen, Carlsbad, Calif.) supplemented with 10 percent heat-inactivated fetal calf serum. Alkaline phosphatase activity in C2C12 cells was measured as described (Gallea, et al., 2001; Spinella-Jaegle, et al., 2001). Cell lysates were analyzed for protein content using the micro-BCA assay kit (Pierce, Rockford, Ill.).
# [3] = tested on: Saos-2 cells; test: GST-E-cadherin binding assay / immunoblot of uncomplexed b-catenin; format: cell-based, human
# Description: (§1) Cells were incubated in MEM, Wnt3a CM, control CM, or with recombinant Wnt3a for indicated times. For inhibition studies, cells were pretreated with purified recombinant Dkk1 at indicated concentrations or Dkk1 CM, Dkk2 CM, or bone marrow plasma with low or high concentrations of Dkk1 protein for one hour. Following treatment, cells were lysed as described (Qiang et al., 2002). Cell lysates were separated by SDS-PAGE and transferred to Immobilon polyvinylidene difluoride membranes (Millipore, Bedford, Mass.). Immunoblotting was performed using the indicated antibodies.
# (§2) The GST-E-cadherin binding assay was performed as described (Bafico et al., 1998). Briefly, the beta-catenin binding site of E-cadherin as a GST-fusion protein was purified using GST beads. GST-E-cadherin was used to precipitate uncomplexed b-catenin present in 500 ng of cell lysate. Precipitated b-catenin was detected by immunoblotting using a b-catenin monoclonal antibody. Non-phosphorylated b-catenin was detected with a monoclonal antibody specific for b-catenin dephosphorylated at residues of 27-37 (Alexis, San Diego, Calif.).
# The GST-E-cadherin binding assay was performed as described (Bafico et al., 1998). […] Precipitated beta-catenin was detected by immunoblotting analysis using a b-catenin monoclonal antibody (Qiang et al., 2005).
# [4] = tested on: C2C12 cells; test: RANKL mRNA (qPCR) in osteoblast cells; format: cell-based, mouse; settings: 48 hours
# Description: (§3) C2C12 cells were cultured in 6-well plates in DMEM with 10% FBS and maintained at subconfluence. MM cells (5×10^5/ml) were seeded on the C2C12 in the presence or absence of Wnt3a-CM or Cont-CM for indicated times. For coculture with primary cells, CD138 positive cells were cultured on of the C2C12 monolayer […] in the presence or absence of rWnt3a with and without anti-DKK1 antibody (R&D System) for 48 hours. Total RNA was isolated using TRIZOL reagent (Invitrogen). Supernatants were harvested for protein analysis.
# (§4) One microgram of total RNA was reverse transcribed into total cDNA. Quantitative PCR (qPCR) was performed using an ABI Prism 7000 sequence detection system (Applied Biosystems, Foster City, Calif.). The reaction mixture contained 1 ml of cDNA, dedicated buffers with specific primers and probes (5′-labeled by 6-carboxy-fluorescein and 3′-labeled by 1-carboxy-teteramethyrhdamine), and DNA polymerase in a total 20 ml volume. […] Each cDNA sample was analyzed in triplicate in parallel with GAPDH as a control. Changes in mRNA concentration were determined by subtracting the CT (threshold cycle) of target gene from the CT of GAPDH (Δ=CT gene−CT GAPDH). The mean of Δ control was subtracted from the ΔSiLRP5/6 reaction (mean Δ control−ASiLRP5/6=e) The difference was calculated as 2^e by the ^2-ΔΔCT (Livak and Schmittgen, 2001).
# [5] = tested on: hFOB 1.19 cells; test: GST-E-cadherin binding assay / immunoblot of uncomplexed b-catenin; format: cell-based, human; settings: lowest concentration tested (5 ng/ml)
# Description: as §1, §2
# [6] = tested on: C2C12 cells; test: TOPflash LEF/TCF luciferase reporter gene assay; format: cell-based; settings: mouse pre-osteoblasts
# Description: Cells plated at 5×10^4 per well in a 12-well plate were transiently co-transfected with […] of either TOPflash, FOPflash (Korinek et al., 1997), or Cbfa-1-luc (kindly provided by Dr. Ying Zhang, NCI, NIH) and 50 ng of pSV-b-galactosidase vector to normalize for transfection efficiency using Lipofectamine according to manufacturer instructions (Invitrogen). Following transfection, cells were exposed to Wnt3a CM or control CM for 24 hr prior to luciferase assay. Luciferase activity was measured as previously described (Qiang et al., 2003).
# [7] = tested on: C2C12 cells; test: OPG mRNA (qPCR) and protein (ELISA) in osteoblast cells; format: cell-based, mouse
# Description: as §3
# (§5) Microtiter plates were coated with 50 μl of anti-DKK1 antibody (R&D Systems, Minneapolis, Minn.) according to manufacturer recommendations. Bone marrow serum (1:50) in dilution buffer was added and incubated overnight at 4° C. Plates were washed and incubated with biotinylated goat anti-human DKK1 IgG (R&D Systems, Minneapolis, Minn.) followed by streptavidin-horseradish peroxidase (Vector Laboratories), according to manufacturer recommendations. The concentrations of OPG and RANKL proteins in cultured supernatant were measured using the kits from according to manufacturer recommendations (R&D Systems, Minneapolis, Minn.).
# as §4
# [8] = tested on: C2C12 cells; test: Alkaline phosphatase (ALP) assay, BMP-2-induced differentiation; format: cell-based, mouse; settings: 72 hrs
# Description: ALP activity was measured using ALP kit (Diagnostic Chemical Limited, Exton, Pa.) according to manufacturer instructions. Absorbance The of samples was determined with a Spectra Max340 Microplate Spectrophotometer (Molecular Devices, Sunnyvale, Calif.) at 402 nm. Cell lysates were analyzed for protein content with using the micro-BCA assay kit (Pierce, Rockford, Ill.).
# Chemical synthesis of siRNA specific to LRP5/6, GFP, and control siRNA were purchased from Qiagen (Valencia, Calif.). The siRNA were transiently transfected into C2C12 using Lipofectamine according to manufacturer instructions (Invitrogen). RNA was isolated after 24, 48 or 72 hours then subjected to RT-PCR or qPCR for determination of efficacy of target gene silencing.
# [9] = tested on: C2C12 cells; test: GST-E-cadherin binding assay / immunoblot of uncomplexed b-catenin; format: cell-based, mouse
# Description: Cells were incubated in MEM, Wnt3a CM, control CM, or with recombinant Wnt3a for indicated times. For inhibition studies, cells were pretreated with purified recombinant Dkk1 at indicated concentrations or Dkk1 CM, Dkk2 CM, or bone marrow plasma with low or high concentrations of Dkk1 protein for one hour. […] Cell lysates were separated by SDS-PAGE and transferred to Immobilon polyvinylidene difluoride membranes (Millipore, Bedford, Mass.). Immunoblotting was performed using the indicated antibodies.
# The beta-catenin binding site of E-cadherin as a GST-fusion protein was purified using GST beads. GST-E-cadherin was used to precipitate uncomplexed beta-catenin in 500 mg of cell lysate. Precipitated beta-catenin was detected by immunoblotting analysis using a b-catenin monoclonal antibody (Qiang et al., 2005).
# [10] = tested on: MG63 cells; test: OPG mRNA (qPCR) in osteoblast cells; format: cell-based, human; settings: data not shown
# Description: One microgram of total RNA was reverse transcribed into total cDNA. Quantitative PCR (qPCR) was performed using an ABI Prism 7000 sequence detection system (Applied Biosystems, Foster City, Calif.). The reaction mixture contained […], dedicated buffers with specific primers and probes (5′-labeled by 6-carboxy-fluorescein and 3′-labeled by 1-carboxy-teteramethyrhdamine), and DNA polymerase in a total […]. Following 2 min incubation at 50° C. and 10 min incubation at 95° C. for denaturing, the reaction was subjected to 40-cycle amplification at 95° C. for 15 s to denature and at 60° C. for 1 min for annealing/extension. Each cDNA sample was analyzed in triplicate in parallel with GAPDH as a control. Changes in mRNA concentration were determined by subtracting the CT (threshold cycle) of target gene from the CT of GAPDH (Δ=CT gene−CT GAPDH). The mean of Δ control was subtracted from the ΔSiLRP5/6 reaction (mean Δ control−ASiLRP5/6=e) The difference was calculated as 2^e by the ^2-ΔΔCT (Livak and Schmittgen, 2001).
# [11] = tested on: Saos-2 cells; test: OPG mRNA (qPCR) and protein (ELISA) in osteoblast cells; format: cell-based, human
# Description: as §5
# as §4, with “Calif.).” for “Calif.). The reaction mixture contained 1 ml of cDNA, dedicated buffers with specific primers and probes (5′-labeled by 6-carboxy-fluorescein and 3′-labeled by 1-carboxy-teteramethyrhdamine), and DNA polymerase in a total 20 ml volume.”, “2001). […]” for “2001).”
# [12] = dose- and time-dependent, maximum reached
molecule,measurement,setting,value
CC(C)C[C@H](NC(=O)[C@H](Cc1ccccc1)NC(=O)c1cnccn1)B(O)O [PS-341],DKK-1 and FRZB expression after drug treatment,[1],massively upregulated in many cases
O=C1CCC(N2C(=O)c3ccccc3C2=O)C(=O)N1 (stereo not shown) [thalidomide],DKK-1 and FRZB expression after drug treatment,[1],massively upregulated in many cases
"recombinant human DKK1: recombinant Dickkopf-1 protein, soluble inhibitor of Wnt signaling (protein) TLNSVLNSNAIKNLPPPLGGAAGHPGSAVSAAPGILYPGGNKYQTIDNYQPYPCAEDEECGTDEYCASPTRGGDAGVQICLACRKRRKRCMRHAMCCPGNYCKNGICVSSDQNHFRGEIEETITESFGNDHSTLDGYSRRTTLSSKMYHTKGQEGSVCLRSSDCASGLCCARHFWSKICKPVLKEGQVCTKHRRKGSHGLEIFQRCYCGEGLSCRIQKDHHQASNSSRLHTCQRH",alkaline phosphatase production with BMP-2 plus DKK1,[2],not produced
same,inhibition of Wnt3a-increased non-phosphorylated b-catenin,[3]; lowest concentration tested (5 ng/ml),pronounced inhibition
same,b-catenin level (pull-down assay),[3]; recombinant DKK1 before Wnt3a,reduced
same,"RANKL mRNA decreased by Wnt3a, after DKK1 pretreatment",[4]; 100 ng/ml DKK1 pretreatment,restored
same,inhibition of Wnt3a-increased non-phosphorylated b-catenin,[5],pronounced inhibition
same,Wnt3a-induced TCF/LEF transcriptional activity in presence of Dkk1,[6],completely attenuates
same,Wnt3a-induced increase in OPG mRNA in presence of DKK1,[7]; 100 ng/ml of DKK1 in culture media,significantly inhibited
same,BMP-2-induced ALP activity after Dkk1 pretreatment,"[8]; 100 ng/ml Dkk1, presence or absence of Wnt3a",significantly inhibited ALP activity
same,concentration of maximal inhibition of Wnt3a-increased non-phosphorylated b-catenin,[9]; pretreatment before Wnt3a,50 ng/mL
same,b-catenin level (pull-down assay),[9]; recombinant DKK1 before Wnt3a,reduced
"Wnt3a: recombinant Wnt3a (R&D Systems), canonical Wnt ligand (protein, UniProt P56704 19-352, looked up) Protein Wnt-3a: SYPIWWSLAVGPQYSSLGSQPILCASIPGLVPKQLRFCRNYVEIMPSVAEGIKIGIQECQHQFRGRRWNCTTVHDSLAIFGPVLDKATRESAFVHAIASAGVAFAVTRSCAEGTAAICGCSSRHQGSPGKGWKWGGCSEDIEFGGMVSREFADARENRPDARSAMNRHNNEAGRQAIASHMHLKCKCHGLSGSCEVKTCWWSQPDFRAIGDFLKDKYDSASEMVVEKHRESRGWVETLRPRYTYFKVPTERDLVYYEASPNFCEPNPETGSFGTRDRTCNVSSHGIDGCDLLCCGRGHNARAERRREKCRCVFHWCCYVSCQECTRVYDVHTCK",increase of OPG mRNA,[10],1.5 fold
same,increase of OPG protein relative to controls (ELISA of supernatants),[11],4 fold
same,increase of OPG mRNA,[11]; [12],2 fold
same,RANKL mRNA after Wnt3a,[4],significant decrease in RANKL mRNA
same,increase of OPG protein relative to controls (ELISA of supernatants),[7],2000 fold
same,increase of OPG mRNA,[7]; [12],40 fold
same,"ALP activity, factor alone",[8]; DMEM with 2% horse serum,no effect
